Measured values from PMC11753358 (Oncogene, 2024).

Molecular target: human EphA2-Fc, biotinylated (human, UniProt P29317 24-537, biotin (EZ-Link Sulfo NHS-LC-LC-Biotin, 1:1 molar ratio))
Experiment: BLI

Chain of human EphA2-Fc, biotinylated (P29317 24-537): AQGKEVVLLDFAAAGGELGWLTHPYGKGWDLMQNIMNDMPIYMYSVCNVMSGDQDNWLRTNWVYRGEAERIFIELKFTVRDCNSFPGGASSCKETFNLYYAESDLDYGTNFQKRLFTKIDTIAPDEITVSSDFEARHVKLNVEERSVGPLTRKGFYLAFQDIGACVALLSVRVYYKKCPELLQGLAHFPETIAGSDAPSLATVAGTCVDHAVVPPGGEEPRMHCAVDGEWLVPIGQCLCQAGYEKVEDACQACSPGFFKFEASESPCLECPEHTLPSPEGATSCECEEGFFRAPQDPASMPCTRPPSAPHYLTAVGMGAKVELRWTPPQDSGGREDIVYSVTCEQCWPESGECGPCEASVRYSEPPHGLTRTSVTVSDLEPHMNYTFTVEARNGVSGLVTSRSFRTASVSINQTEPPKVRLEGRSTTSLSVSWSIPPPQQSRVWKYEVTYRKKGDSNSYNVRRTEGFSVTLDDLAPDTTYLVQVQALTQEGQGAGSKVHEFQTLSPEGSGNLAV

B1: human ephrin-A1-Fc (recombinant soluble ephrin-A1 fused to human IgG1Fc) (Fc fusion, UniProt P20827 19-182, looked up)
chain: DRHTVFWNSSNPKFRNEDYTIHVQLNDYVDIICPHYEDHSVADAAMEQYILYLVEHEEYQLCQPQSKDQVRWQCNRPSAKHGPEKLSEKFQRFTPFTLGKEFKEGHSYYYISKPIHQHEDRCLRLKVTVSGKITHSPQAHDNPQEKRLAADDPEVRVLHSIGHS
Q: Does B1 bind?
A: binds
